According to paper PMC9308760 (Molecular cell, 2022):

Columns and labels:
TnsB Δ245-251 = target: T1, TnsB Δ245-251 (Escherichia coli (Tn7), UniProt P13989 1-702, del245-251); test: EMSA
T1 sequence: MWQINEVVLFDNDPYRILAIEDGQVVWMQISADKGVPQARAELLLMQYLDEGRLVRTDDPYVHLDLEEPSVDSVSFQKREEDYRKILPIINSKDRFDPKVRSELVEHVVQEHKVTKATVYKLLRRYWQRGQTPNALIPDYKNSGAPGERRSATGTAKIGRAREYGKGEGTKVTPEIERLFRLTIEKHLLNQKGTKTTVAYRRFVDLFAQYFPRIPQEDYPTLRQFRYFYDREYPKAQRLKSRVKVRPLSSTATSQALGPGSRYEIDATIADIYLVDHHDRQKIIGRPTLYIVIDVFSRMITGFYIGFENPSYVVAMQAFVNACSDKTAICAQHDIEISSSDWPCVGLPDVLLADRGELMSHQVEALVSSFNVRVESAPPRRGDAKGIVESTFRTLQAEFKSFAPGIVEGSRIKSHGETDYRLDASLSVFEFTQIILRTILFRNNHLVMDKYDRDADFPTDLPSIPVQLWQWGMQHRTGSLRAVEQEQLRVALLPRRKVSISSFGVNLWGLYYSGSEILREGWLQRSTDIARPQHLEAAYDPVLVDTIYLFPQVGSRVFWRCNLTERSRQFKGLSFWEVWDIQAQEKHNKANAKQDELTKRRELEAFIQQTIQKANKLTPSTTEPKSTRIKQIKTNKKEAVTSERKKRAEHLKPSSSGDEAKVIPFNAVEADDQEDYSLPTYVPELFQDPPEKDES

negative-stain EM = target: the molecule itself; test: negative-stain EM
cryo-EM structure = target: the molecule itself; test: cryo-EM structure
TnsB wild type = target: T2, TnsB wild type (Escherichia coli (Tn7), UniProt P13989 1-702); test: EMSA
T2 sequence: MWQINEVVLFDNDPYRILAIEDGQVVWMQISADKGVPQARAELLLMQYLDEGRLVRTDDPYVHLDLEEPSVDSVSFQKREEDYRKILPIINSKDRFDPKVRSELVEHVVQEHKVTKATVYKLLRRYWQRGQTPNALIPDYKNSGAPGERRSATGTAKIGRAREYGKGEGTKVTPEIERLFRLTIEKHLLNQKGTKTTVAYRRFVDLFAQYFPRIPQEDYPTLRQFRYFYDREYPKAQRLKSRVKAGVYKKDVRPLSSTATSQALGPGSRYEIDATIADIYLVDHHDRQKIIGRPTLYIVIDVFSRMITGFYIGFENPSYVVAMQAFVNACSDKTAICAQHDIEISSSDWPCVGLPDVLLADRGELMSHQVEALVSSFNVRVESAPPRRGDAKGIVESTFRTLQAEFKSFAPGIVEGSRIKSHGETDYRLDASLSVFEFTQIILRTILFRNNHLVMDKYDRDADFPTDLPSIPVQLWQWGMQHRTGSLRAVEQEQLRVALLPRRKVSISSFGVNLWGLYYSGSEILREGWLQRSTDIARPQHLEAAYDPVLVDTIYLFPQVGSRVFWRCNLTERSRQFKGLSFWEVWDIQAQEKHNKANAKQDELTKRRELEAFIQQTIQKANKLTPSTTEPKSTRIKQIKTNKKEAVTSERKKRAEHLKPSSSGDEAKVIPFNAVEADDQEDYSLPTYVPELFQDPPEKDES

B1: 3BS (dsDNA)
DNA 1: CTAGTTTAAGACTTTATTGTCATAGTTTAGATCTATTTTGTTCAGTTTAAGACTTTATTGTCCGCCCACA
DNA 2: TGTGGGCGGACAATAAAGTCTTAAACTGAACAAAATAGATCTAAACTATGACAATAAAGTCTTAAACTAG
**Q.** Does B1 bind (TnsB Δ245-251)?
**A.** Result: binds

B2: TnsB variant with a shorter DBD2-CD linker (Δ245–251) (enzyme, E. coli)
chain: MWQINEVVLFDNDPYRILAIEDGQVVWMQISADKGVPQARAELLLMQYLDEGRLVRTDDPYVHLDLEEPSVDSVSFQKREEDYRKILPIINSKDRFDPKVRSELVEHVVQEHKVTKATVYKLLRRYWQRGQTPNALIPDYKNSGAPGERRSATGTAKIGRAREYGKGEGTKVTPEIERLFRLTIEKHLLNQKGTKTTVAYRRFVDLFAQYFPRIPQEDYPTLRQFRYFYDREYPKAQRLKSRVKVRPLSSTATSQALGPGSRYEIDATIADIYLVDHHDRQKIIGRPTLYIVIDVFSRMITGFYIGFENPSYVVAMQAFVNACSDKTAICAQHDIEISSSDWPCVGLPDVLLADRGELMSHQVEALVSSFNVRVESAPPRRGDAKGIVESTFRTLQAEFKSFAPGIVEGSRIKSHGETDYRLDASLSVFEFTQIILRTILFRNNHLVMDKYDRDADFPTDLPSIPVQLWQWGMQHRTGSLRAVEQEQLRVALLPRRKVSISSFGVNLWGLYYSGSEILREGWLQRSTDIARPQHLEAAYDPVLVDTIYLFPQVGSRVFWRCNLTERSRQFKGLSFWEVWDIQAQEKHNKANAKQDELTKRRELEAFIQQTIQKANKLTPSTTEPKSTRIKQIKTNKKEAVTSERKKRAEHLKPSSSGDEAKVIPFNAVEADDQEDYSLPTYVPELFQDPPEKDES
**Q.** Does B2 bind (negative-stain EM)?
**A.** Result: binds

B3: Tn7 transposase TnsB (E. coli), wild type (enzyme, UniProt P13989 1-702, looked up)
chain: MWQINEVVLFDNDPYRILAIEDGQVVWMQISADKGVPQARAELLLMQYLDEGRLVRTDDPYVHLDLEEPSVDSVSFQKREEDYRKILPIINSKDRFDPKVRSELVEHVVQEHKVTKATVYKLLRRYWQRGQTPNALIPDYKNSGAPGERRSATGTAKIGRAREYGKGEGTKVTPEIERLFRLTIEKHLLNQKGTKTTVAYRRFVDLFAQYFPRIPQEDYPTLRQFRYFYDREYPKAQRLKSRVKAGVYKKDVRPLSSTATSQALGPGSRYEIDATIADIYLVDHHDRQKIIGRPTLYIVIDVFSRMITGFYIGFENPSYVVAMQAFVNACSDKTAICAQHDIEISSSDWPCVGLPDVLLADRGELMSHQVEALVSSFNVRVESAPPRRGDAKGIVESTFRTLQAEFKSFAPGIVEGSRIKSHGETDYRLDASLSVFEFTQIILRTILFRNNHLVMDKYDRDADFPTDLPSIPVQLWQWGMQHRTGSLRAVEQEQLRVALLPRRKVSISSFGVNLWGLYYSGSEILREGWLQRSTDIARPQHLEAAYDPVLVDTIYLFPQVGSRVFWRCNLTERSRQFKGLSFWEVWDIQAQEKHNKANAKQDELTKRRELEAFIQQTIQKANKLTPSTTEPKSTRIKQIKTNKKEAVTSERKKRAEHLKPSSSGDEAKVIPFNAVEADDQEDYSLPTYVPELFQDPPEKDES
**Q.** Does B3 bind (cryo-EM structure)?
**A.** Result: binds

B4: 2BSL (dsDNA)
DNA 1: CCCAGTTCCCATCTATTTTGTCACTCTTCCCTAAATAATCCTTAAAAACTCCATTTCCACCCCTCCCAGTTCCCAACTATTTTGTCCGCCCACA
DNA 2: TGTGGGCGGACAAAATAGTTGGGAACTGGGAGGGGTGGAAATGGAGTTTTTAAGGATTATTTAGGGAAGAGTGACAAAATAGATGGGAACTGGG
**Q.** With B4 as the binder, how does the Kd (TnsB wild type) read?
**A.** The Kd was 85 ± 4 nM.
